From US20070066682A1, “Arylalkylamine vanadium (V) salts for the treatment and/or prevention of Diabetes mellitus” (priority 2005, published 2007)

Key:
Format in all cases: biochemical
[1] = substrate: NCCCCc1ccccc1; assay: Kinetic parameters, mouse SSAO/VAP-1; conditions: other: Mouse SSAO/VAP-1
Protocol: (§1) The continuous spectrophotometric detection of SSAO-dependent H2O2 production based on a peroxidase-coupled reaction was performed as previously described by Abella et al. (2004, Diabetologia 47: 429-438) and following the procedure described by Holt et al., (1997, Anal. Biochem. 244: 384-392).
(§2) Compounds listed in Table 1 were prepared according to the methods described above, purity was determined by HPLC at 220 nm, molecular weight calculated by mass spectrometer. Human and mouse SSAO activity was determined by detecting the production of hydrogene peroxide in the presence of the different compounds present at 1 mM for human and 100 μM for mice activity measurements. Compounds in Table 2″ were similarly assayed. Values are means of percentages relative to benzylamine-related hydrogen production. Kinetic Parameters for select compounds are set forth in Table 3 (Mouse SSAO) and Table 4 (Human SSAO).

[2] = substrate: NCCCc1ccccc1; assay: Kinetic parameters, mouse SSAO/VAP-1; conditions: other: Mouse SSAO/VAP-1
Protocol: as §1, §2

[3] = substrate: NCCc1ccc(F)cc1; assay: Kinetic parameters, mouse SSAO/VAP-1; conditions: other: Mouse SSAO/VAP-1
Protocol: as §1, §2

[4] = substrate: NCCc1ccccc1; assay: Kinetic parameters, mouse SSAO/VAP-1; conditions: other: Mouse SSAO/VAP-1
Protocol: as §1, §2

[5] = substrate: NCc1ccc(F)cc1; assay: Kinetic parameters, mouse SSAO/VAP-1; conditions: other: Mouse SSAO/VAP-1
Protocol: as §1, §2

[6] = substrate: NCc1ccccc1; assay: Kinetic parameters, mouse SSAO/VAP-1; conditions: other: Mouse SSAO/VAP-1
Protocol: as §1, §2

[7] = substrate: NCCCCc1ccccc1; assay: Kinetic parameters, human SSAO/VAP-1; conditions: other: Human SSAO/VAP-1
Protocol: as §1, §2

[8] = substrate: NCCCc1ccccc1; assay: Kinetic parameters, human SSAO/VAP-1; conditions: other: Human SSAO/VAP-1
Protocol: as §1, §2

[9] = substrate: NCCc1ccc(F)cc1; assay: Kinetic parameters, human SSAO/VAP-1; conditions: other: Human SSAO/VAP-1
Protocol: as §1, §2

[10] = substrate: NCCc1ccccc1; assay: Kinetic parameters, human SSAO/VAP-1; conditions: other: Human SSAO/VAP-1
Protocol: as §1, §2

[11] = substrate: NCc1ccc(F)cc1; assay: Kinetic parameters, human SSAO/VAP-1; conditions: other: Human SSAO/VAP-1
Protocol: as §1, §2

[12] = substrate: NCc1ccccc1; assay: Kinetic parameters, human SSAO/VAP-1; conditions: other: Human SSAO/VAP-1
Protocol: as §1, §2

B1: Mouse SSAO/VAP-1 (Mus musculus) (protein)
chain: MTQKTTLVLLALAVITIFALVCVLLAGRSGDGGGLSQPLHCPSVLPSVQPRTHPSQSQPFADLSPEELTAVMSFLTKHLGPGLVDAAQARPSDNCVFSVELQLPAKAAALAHLDRGGPPPVREALAIIFFGGQPKPNVSELVVGPLPHPSYMRDVTVERHGGPLPYYRRPVLDREYQDIEEMIFHRELPQASGLLHHCCFYKHQGQNLLTMTTAPRGLQSGDRATWFGLYYNLSGAGFYPHPIGLELLIDHKALDPALWTIQKVFYQGRYYESLTQLEDQFEAGLVNVVLVPNNGTGGSWSLKSSVPPGPAPPLQFHPQGPRFSVQGSQVSSSLWAFSFGLGAFSGPRIFDIRFQGERVAYEISVQEAIALYGGNSPASMSTCYVDGSFGIGKYSTPLIRGVDCPYLATYVDWHFLLESQAPKTLRDAFCVFEQNQGLPLRRHHSDFYSHYFGGVVGTVLVVRSVSTLLNYDYIWDMVFHPNGAIEVKFHATGYISSAFFFGAGEKFGNRVGAHTLGTVHTHSAHFKVDLDVAGLKNWAWAEDMAFVPTIVPWQPEYQMQRLQVTRKLLETEEEAAFPLGGATPRYLYLASNHSNKWGHRRGYRIQILSFAGKPLPQESPIEKAFTWGRYHLAVTQRKEEEPSSSSIFNQNDPWTPTVNFTDFISNETIAGEDLVAWVTAGFLHIPHAEDIPNTVTAGNSVGFFLRPYNFFDEDPSFHSADSIYFREGQDATACEVNPLACLSQTATCAPEIPAFSHGGFAYRDN
- Km [1]: 8.8 ± 2.9 µM
- kcat/Km [1]: 3910 M⁻¹ s⁻¹
- Km [2]: 10 ± 1.2 µM
- kcat/Km [2]: 1670 M⁻¹ s⁻¹
- Km [3]: 31 ± 10 µM
- kcat/Km [3]: 488 M⁻¹ s⁻¹
- Km [4]: 4.8 ± 13 µM
- kcat/Km [4]: 3040 M⁻¹ s⁻¹
- Km [5]: 29.1 ± 4.8 µM
- kcat/Km [5]: 1490 M⁻¹ s⁻¹
- Km [6]: 27.5 ± 9.9 µM
- kcat/Km [6]: 3780 M⁻¹ s⁻¹

B2: Human SSAO/VAP-1 (Homo sapiens) (protein)
chain: MNQKTILVLLILAVITIFALVCVLLVGRGGDGGEPSQLPHCPSVSPSAQPWTHPGQSQLFADLSREELTAVMRFLTQRLGPGLVDAAQARPSDNCVFSVELQLPPKAAALAHLDRGSPPPAREALAIVFFGRQPQPNVSELVVGPLPHPSYMRDVTVERHGGPLPYHRRPVLFQEYLDIDQMIFNRELPQASGLLHHCCFYKHRGRNLVTMTTAPRGLQSGDRATWFGLYYNISGAGFFLHHVGLELLVNHKALDPARWTIQKVFYQGRYYDSLAQLEAQFEAGLVNVVLIPDNGTGGSWSLKSPVPPGPAPPLQFYPQGPRFSVQGSRVASSLWTFSFGLGAFSGPRIFDVRFQGERLVYEISLQEALAIYGGNSPAAMTTRYVDGGFGMGKYTTPLTRGVDCPYLATYVDWHFLLESQAPKTIRDAFCVFEQNQGLPLRRHHSDLYSHYFGGLAETVLVVRSMSTLLNYDYVWDTVFHPSGAIEIRFYATGYISSAFLFGATGKYGNQVSEHTLGTVHTHSAHFKVDLDVAGLENWVWAEDMVFVPMAVPWSPEHQLQRLQVTRKLLEMEEQAAFLVGSATPRYLYLASNHSNKWGHPRGYRIQMLSFAGEPLPQNSSMARGFSWERYQLAVTQRKEEEPSSSSVFNQNDPWAPTVDFSDFINNETIAGKDLVAWVTAGFLHIPHAEDIPNTVTVGNGVGFFLRPYNFFDEDPSFYSADSIYFRGDQDAGACEVNPLACLPQAAACAPDLPAFSHGGFSHN
- Km [7]: 430 ± 110 µM
- Vmax [7]: 0.577 µmol/min/mg
- kcat [7]: 0.83 s⁻¹
- kcat/Km [7]: 1930 M⁻¹ s⁻¹
- Km [8]: 1339 ± 140 µM
- Vmax [8]: 0.156 µmol/min/mg
- kcat [8]: 0.22 s⁻¹
- kcat/Km [8]: 168 M⁻¹ s⁻¹
- Km [9]: 2805 ± 613 µM
- Vmax [9]: 0.263 µmol/min/mg
- kcat [9]: 0.38 s⁻¹
- kcat/Km [9]: 135 M⁻¹ s⁻¹
- Km [10]: 2918 ± 1910 µM
- Vmax [10]: 0.05 µmol/min/mg
- kcat [10]: 0.07 s⁻¹
- kcat/Km [10]: 25 M⁻¹ s⁻¹
- Km [11]: 647 ± 32 µM
- Vmax [11]: 0.27 µmol/min/mg
- kcat [11]: 0.39 s⁻¹
- kcat/Km [11]: 600 M⁻¹ s⁻¹
- Km [12]: 277 ± 33 µM
- Vmax [12]: 0.294 µmol/min/mg
- kcat [12]: 0.42 s⁻¹
- kcat/Km [12]: 1530 M⁻¹ s⁻¹
